Molecular target: T1, GST-DSS1 (human, UniProt P60896 1-70)
T1 construct: DSS1, human; expressed from pGEX-KG; NMR numbering runs from M1 to three residues after M67; also called recombinant GST-DSS1 protein; source: E. coli BL21 (DE3), purified (Glutathione 4B-Sepharose, MonoQ); not shown: GST, N-terminal, kept
Test: pull-down; quantitative: GST-DSS1 4 uM on GST beads, increasing His6-RAD52, 20 mM Tris-acetate pH 7.5, 100 mM KCl, 0.01% NP40, 1 mM DTT, 1 h, 4°C; band intensities normalised to 6 uM His6-RAD52
Conditions: both partners purified

T1 sequence (P60896 whole entry): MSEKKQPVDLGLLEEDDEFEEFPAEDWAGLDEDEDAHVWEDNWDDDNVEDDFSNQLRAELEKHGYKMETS

stoichiometry N: 1
B1: His6-RAD52 (natural protein, human, UniProt P43351 1-418, looked up)
chain: MSGTEEAILGGRDSHPAAGGGSVLCFGQCQYTAEEYQAIQKALRQRLGPEYISSRMAGGGQKVCYIEGHRVINLANEMFGYNGWAHSITQQNVDFVDLNNGKFYVGVCAFVRVQLKDGSYHEDVGYGVSEGLKSKALSLEKARKEAVTDGLKRALRSFGNALGNCILDKDYLRSLNKLPRQLPLEVDLTKAKRQDLEPSVEEARYNSCRPNMALGHPQLQQVTSPSRPSHAVIPADQDCSSRSLSSSAVESEATHQRKLRQKQLQQQFRERMEKQQVRVSTPSAEKSEAAPPAPPVTHSTPVTVSEPLLEKDFLAGVTQELIKTLEDNSEKWAVTPDAGDGVVKPSSRADPAQTSDTLALNNQMVTQNRTPHSVCHQKPQAKSGSWDLQTYSADQRTTGNWESHRKSQDMKKRKYDPS
notes: RAD52, human, with His6 tag; not shown: His6, N-terminal, kept

— article PMC6954417, “DSS1 interacts with and stimulates RAD52 to promote the repair of DSBs” (Nucleic Acids Research, 2019)
